Molecular target: BAD16-C (residues 204-352, B. afzelii strain PGau) (Borrelia afzelii strain PGau)
Assay: SPR; Biacore T200, 25°C; borrelial protein immobilised by amine coupling; C1r as analyte, single-cycle kinetics, five-fold dilution series 1.6 to 1000 nM; HBS-T with 5 mM CaCl2; 1:1 kinetic fit; triplicate

B1: human C1r, full-length enzyme (enzyme)
chain: SIPIPQKLFGEVTSPLFPKPYPNNFETTTVITVPTGYRVKLVFQQFDLEPSEGCFYDYVKISADKKSLGRFCGQLGSPLGNPPGKKEFMSQGNKMLLTFHTDFSNEENGTIMFYKGFLAYYQAVDLDECASRSKSGEEDPQPQCQHLCHNYVGGYFCSCRPGYELQEDTHSCQAECSSELYTEASGYISSLEYPRSYPPDLRCNYSIRVERGLTLHLKFLEPFDIDDHQQVHCPYDQLQIYANGKNIGEFCGKQRPPDLDTSSNAVDLLFFTDESGDSRGWKLRYTTEIIKCPQPKTLDEFTIIQNLQPQYQFRDYFIATCKQGYQLIEGNQVLHSFTAVCQDDGTWHRAMPRCKIKDCGQPRNLPNGDFRYTTTMGVNTYKARIQYYCHEPYYKMQTRAGSRESEQGVYTCTAQGIWKNEQKGEKIPRCLPVCGKPVNPVEQRQRIIGGQKAKMGNFPWQVFTNIHGRGGGALLGDRWILTAAHTLYPKEHEAQSNASLDVFLGHTNVEELMKLGNHPIRRVSVHPDYRQDESYNFEGDIALLELENSVTLGPNLLPICLPDNDTFYDLGLMGYVSGFGVMEEKIAHDLRFVRLPVANPQACENWLRGKNRMDVFSQNMFCAGHPSLKQDACQGDSGGVFAVRDPNTDRWVATGIVSWGIGCSRGYGFYTKVLNYVDWIKKEMEEED
Which Kd does the source give for B1 here?
The Kd was 2.2 nM.

And the koff?
The koff was 4.3e-05 s⁻¹.

And the kon?
The kon was 19000 M⁻¹ s⁻¹.
